Key:
[1] = molecular target: T1, Arid5a ARID (Homo sapiens) (UniProt Q03989); experiment: pulldown; conditions: 1 and 5 uM protein; 25 mM Tris pH 7.5, 150 mM KCl, 3 mM MgCl2
T1 sequence: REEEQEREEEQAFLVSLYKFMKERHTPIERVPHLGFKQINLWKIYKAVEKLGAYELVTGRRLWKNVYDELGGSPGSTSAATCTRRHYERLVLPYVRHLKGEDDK

ARID49-152 K85A/Q86A = molecular target: T2, ARID49-152 K85A/Q86A (human, UniProt Q03989 49-152, K85A;Q86A); experiment: NMR; 2-fold DNA; 20 mM Bis-Tris pH 6.5, 150 mM NaCl, 2 mM TCEP, 0.02% NaN3; NMR at 298 K; EMSA plus 10 mM MgCl2 and 0.6 ug yeast tRNA per 20 ul, 22-24 C; conditions: protein: recombinant; tags: cloned in pET-Trx1a (TEV site); blunt
T2 sequence: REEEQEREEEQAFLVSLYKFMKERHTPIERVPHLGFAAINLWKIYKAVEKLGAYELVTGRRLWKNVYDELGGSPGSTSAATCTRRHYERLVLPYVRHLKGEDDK

Arid5a ARID49-152 = molecular target: T3, Arid5a ARID49-152 (human, UniProt Q03989 49-152); experiment: NMR; 2-fold RNA; 20 mM Bis-Tris pH 6.5, 150 mM NaCl, 2 mM TCEP, 0.02% NaN3; NMR at 298 K; EMSA plus 10 mM MgCl2 and 0.6 ug yeast tRNA per 20 ul, 22-24 C; conditions: protein: recombinant; tags: cloned in pET-Trx1a (TEV site)
T3 sequence: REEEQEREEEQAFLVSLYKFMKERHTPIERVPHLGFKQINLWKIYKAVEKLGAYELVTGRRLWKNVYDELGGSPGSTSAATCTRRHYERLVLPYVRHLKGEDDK

Arid5a ARID37-183 [2] = molecular target: T4, Arid5a ARID37-183 (human, UniProt Q03989 37-183); experiment: EMSA; 10 mM MgCl2, yeast tRNA; range over WT, var1, var2, var4; 20 mM Bis-Tris pH 6.5, 150 mM NaCl, 2 mM TCEP, 0.02% NaN3; NMR at 298 K; EMSA plus 10 mM MgCl2 and 0.6 ug yeast tRNA per 20 ul, 22-24 C; conditions: protein: recombinant; tags: cloned in pET-Trx1a (TEV site); label: 5'-fluorescein on strand 1; blunt
T4 sequence: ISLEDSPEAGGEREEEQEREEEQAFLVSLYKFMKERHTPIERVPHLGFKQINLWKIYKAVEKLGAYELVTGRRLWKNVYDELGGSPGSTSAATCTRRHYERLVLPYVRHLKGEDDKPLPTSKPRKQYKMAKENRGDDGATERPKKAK

Arid1a extended ARID [3] = molecular target: T5, Arid1a extended ARID (human, UniProt O14497 999-1132); experiment: EMSA; 20 mM Bis-Tris pH 6.5, 150 mM NaCl, 2 mM TCEP, 0.02% NaN3; NMR at 298 K; EMSA plus 10 mM MgCl2 and 0.6 ug yeast tRNA per 20 ul, 22-24 C; conditions: protein: recombinant; tags: cloned in pET-Trx1a (TEV site); label: 5'-fluorescein on strand 1; blunt
Arid1a extended ARID [4] = molecular target: T5, Arid1a extended ARID; experiment: EMSA; similar affinity to AT; 20 mM Bis-Tris pH 6.5, 150 mM NaCl, 2 mM TCEP, 0.02% NaN3; NMR at 298 K; EMSA plus 10 mM MgCl2 and 0.6 ug yeast tRNA per 20 ul, 22-24 C; conditions: protein: recombinant; tags: cloned in pET-Trx1a (TEV site); label: 5'-fluorescein on strand 1; blunt
Arid5a ARID37-183 [5] = molecular target: T4, Arid5a ARID37-183; experiment: NMR; 3.5-fold RNA; stronger than core; 20 mM Bis-Tris pH 6.5, 150 mM NaCl, 2 mM TCEP, 0.02% NaN3; NMR at 298 K; EMSA plus 10 mM MgCl2 and 0.6 ug yeast tRNA per 20 ul, 22-24 C; conditions: protein: recombinant; tags: cloned in pET-Trx1a (TEV site); hairpin
Arid5a ARID37-183 [6] = molecular target: T4, Arid5a ARID37-183; experiment: NMR; 0.1-fold RNA; 20 mM Bis-Tris pH 6.5, 150 mM NaCl, 2 mM TCEP, 0.02% NaN3; NMR at 298 K; EMSA plus 10 mM MgCl2 and 0.6 ug yeast tRNA per 20 ul, 22-24 C; conditions: protein: recombinant; tags: cloned in pET-Trx1a (TEV site)

T5 sequence (O14497 999-1132): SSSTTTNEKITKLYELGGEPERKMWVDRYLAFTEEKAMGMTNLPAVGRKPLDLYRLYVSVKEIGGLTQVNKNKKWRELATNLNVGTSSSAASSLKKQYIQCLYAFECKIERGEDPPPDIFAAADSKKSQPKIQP

Row | Molecule | binding signal (RBNS z-score of enrichment R) [1] | also measured
1 | AAAAAAA [7-mer AAAAAAA] | 3.68 | 
2 | AAAAAUA [7-mer AAAAATA] | 3.52 | 
3 | AAAUAUA [7-mer AAATATA] | 4.03 | 
4 | AACAGGC [7-mer AACAGGC] | 4.87 | 
5 | AAUAUAA [7-mer AATATAA] | 3.73 | 
6 | ACAGGCA [7-mer ACAGGCA] | 11.6 | 
7 | AGGCAGA [7-mer AGGCAGA] | 6.46 | 
8 | AGGCAGC [7-mer AGGCAGC] | 7.71 | 
9 | AGGCAGG [7-mer AGGCAGG] | 8.18 | 
10 | AGGCAGU [7-mer AGGCAGT] | 6.38 | 
11 | CAGGCAA [7-mer CAGGCAA] | 6.65 | 
12 | CAGGCAG [7-mer CAGGCAG] | 13 | 
13 | CAGGCAU [7-mer CAGGCAT] | 4.61 | 
14 | GCAGGCA [7-mer GCAGGCA] | 5.88 | 
15 | UACAGGC [7-mer TACAGGC] | 5.55 | 
16 | 13merAT (dsDNA) DNA 1: GCACAATATAACG DNA 2: CGTTATATTGTGC |  | binding result (ARID49-152 K85A/Q86A): binds
17 | CCUGCCUGU (ssRNA) [RBNS-9mer-rev] |  | binding result (Arid5a ARID49-152): binds
18 | 13merAT_var4 (dsDNA) DNA 1: GCACAATACGACG DNA 2: CGTCGTATTGTGC |  | Kd (Arid5a ARID37-183 [2]): ~1360 nM
19 | FAM-13merAT (dsDNA) DNA 1: GCACAATATAACG DNA 2: CGTTATATTGTGC |  | Kd (Arid5a ARID37-183 [2]): ~1360 nM; binding result (Arid1a extended ARID [3]): binds
20 | 13merAT_var1 (dsDNA) DNA 1: GCGCAATATAGCG DNA 2: CGCTATATTGCGC |  | Kd (Arid5a ARID37-183 [2]): ~1360 nM
21 | FAM-13merGC (dsDNA) DNA 1: GCCCCGCCCGCCG DNA 2: CGGCGGGCGGGGC |  | binding result (Arid1a extended ARID [4]): binds
22 | 13merAT_var2 (dsDNA) DNA 1: GCACGGTATAACG DNA 2: CGTTATACCGTGC |  | Kd (Arid5a ARID37-183 [2]): ~1360 nM
23 | CACACCGUUCUAGGUGCUG (structured_RNA) [19mer_ADE (Ox40 ADE)] |  | binding result (Arid5a ARID37-183 [5]): binds
24 | ACAGGCAGG (ssRNA) [RBNS-9mer-fw] |  | binding result (Arid5a ARID49-152): binds
25 | Il-6 3'UTR 129 nt (structured_RNA) RNA: GGCACAGAACUUAUGUUGUUCUCUAUGGAGAACUAAAAGUAUGAGCGUUAGGACACUAUUUUAAUUAUUUUUAAUUUAUUAAUAUUUAAAUAUGUGAAGCUGAGUUAAUUUAUGUAAGUCAUAUUUAUA |  | binding result (Arid5a ARID37-183 [6]): binds
